From the nanobody polyreactivity screen of Harvey et al. (2022)

Experiment: yeast display, Sf9 membrane polyspecificity reagent, FACS + sequencing; frameworks hold sequencing errors
How it was run: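 A nanobody's polyreactivity label depends on the gate it was sorted from. Yeast display cells were stained with 10% biotinylated, detergent-solubilized Sf9 membrane reagent for 1 hour at 4 °C, enriched on streptavidin microbeads and sorted by FACS. The low and high (top ~1%) gates were set on anti-HA fluorescence for expression and streptavidin fluorescence for reagent binding.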

With “QVQLVETGGGLVQAGGSLRLSCAPSGLSIGYYAMGWYRQAPGKEREFVAAITWNGGSTYADSVKGLFTISRDNAKNTVYLQMNSLKPEDTAVYYCAADLSYWDDFDYWGQGTQVTVSS” as the sequence, how does the “polyreactivity (PSR sort gate)” value read?
Its value is “low polyreactivity”.

For “QVQLVETGGGLVQAGGSLRLSCAPSGRIFTYYGMGWYRQPPGKERELVAAITRSGGSTRYADSVKGRFTISRDNAKNTVYLQMNSLKPEDTAVYYCNAGGYWRYDYWGQGTQVTVSS”, which “polyreactivity (PSR sort gate)” value is on record?
The value was “high polyreactivity”.

For “QVQLVETGGGLVQAGGSLRLSCAPSGRILYGYAMGWYRQAPGKERELVASITWSGGSTYADSVKGRFTISRDNAKNTVYLQMNSLKPEDTAVYFCATRRGPKWQWLTYGYWGQGTQVTVSS”, which “polyreactivity (PSR sort gate)” value is on record?
Its value is “low polyreactivity”.

With “QVQLVETGGGLVQAGGSLRLSCAPSGSIYYINAMGWYRQAPGKERELVAAIRSGGSTNYADSVKGLFTISRDNAKNTVYLQMNSLKPEDTAVYYCNARSRSYVPYYYWGQGTQVTVSS” as the sequence, how does the “polyreactivity (PSR sort gate)” value read?
Its value is “high polyreactivity”.

Which “polyreactivity (PSR sort gate)” value does the source give for “QVQLVETGGGLVQAGGSLRLSSAASGFIFGTYTMGWYRQAPGKERELVAAISTSSGSTYYADSVKGRFTISRDNAKNTVYLQMNSLKPEDTAVYYCAAPTRSYGTPPYDYWGQGTQVTVSS” here?
Its value is “low polyreactivity”.

For “QVQLVETGGGLVQAGGSLRLSSAASGSTFAWYAMGWYRQAPGKEREFVAAIDQDDDSTYYADSVKGRFTISRDNAKNTVYLQMKSLKPEDTAVYYCAASSPWEQSNDQFYYWGQGTQVTVSS”, which “polyreactivity (PSR sort gate)” value is on record?
The value was “low polyreactivity”.

For “QVQLVETGGGLVQAGGSLRVSCAASGRTFVGNAMGWYRQPPGKERELVAAISYSGDDTYYADSVKGRFTISRDNAKNTVYLQMNSLKPVDTAVYYCAAEWTAENAGIVLELEYWGQGTQVTVSS”, which “polyreactivity (PSR sort gate)” value is on record?
The value was “high polyreactivity”.

For “QVQLVETGGGLVQAGGTLRLSCAASGRIFLTNAMGWYRQAPGKERELVATITASGGTTYYADSVKGRFTISRDNAKITVYLQMNSLKPDDTAVYYCAKRYYLRGFGRYYYCGQGTQVTVSS”, which “polyreactivity (PSR sort gate)” value is on record?
Its value is “high polyreactivity”.

Which “polyreactivity (PSR sort gate)” value does the source give for “QVQLVETGGGLVQARGSLRLSCAASGRTFYKYAMGWYIQAPGKERELVAAISSDGTTYYADSVKGRFTISRDNAKNTVYLQMNRLKPVDTAVYYFAADPPPPFLYVSVQEYDYWGQGTQVTVSS” here?
The value was “low polyreactivity”.

For “QVQLVETGGGLVQARGSLRLSSAASGFIFDENAMGWYRQAPGKERELVAAITSGGGSTYYADSVKGRFTISRDNAKNTVYFQMNSQNPEDTAVYYCNAVPTQHDEFDYWGQGTQVTVSS”, which “polyreactivity (PSR sort gate)” value is on record?
The value was “low polyreactivity”.

For “QVQLVETGGRLVQAGGSLRVSCAASGITFECYAMGWSRQATGKERELVAAIRSSGTSTYYADSVKGRFTISRDNAKNTVYLQMMSLKPEDTAVYYCNLARSSSRYDYWGQGTQVTVSS”, which “polyreactivity (PSR sort gate)” value is on record?
The value was “low polyreactivity”.

For “QVQLVETGPGLVQAGGSLRLSCAASGSIFGTYAMGWYRQAPGKERELVAAITGNGGRTYYADSVKGRFTISRDNAKNTVFLQMNSLKPEDTAVYYCAKATSRRGFYDWGPGTQVTVSS”, which “polyreactivity (PSR sort gate)” value is on record?
Its value is “high polyreactivity”.

Which “polyreactivity (PSR sort gate)” value does the source give for “QVQLVETGVGLVQAGGSLRLSCAASGRIFLVYAMGWYRQAPGKERELVAAISWRGGRTYYADSVKGRFTISRDNAKNTVYLQMNSLIPEDTAVYYCAAASKYSQFEYDYWGQGTQVTVSS” here?
The value was “high polyreactivity”.

For “QVQLVETGVGLVQAGGSLRLSCAASGSTFPGYAMGWYRQAPGKERELVAAISASGGSTYYADSVKGRFTISRDIAKNTVYLQMNSLKPEDTEVYYCAKVLSRGASAHDYWGLGTQVTVSS”, which “polyreactivity (PSR sort gate)” value is on record?
The value was “low polyreactivity”.

With “QVQLVETRGGLVQAGGSLRLSCAASGSIFLQNAMGWYRQAPGKERELVAAITNGGSTNYADSVKGRFTISRDNAKNTVYLQMNSLKPEDTAVYYCAAYPLYTGSYDRGGYWGQGTQVTVSS” as the sequence, how does the “polyreactivity (PSR sort gate)” value read?
The value was “low polyreactivity”.

Which “polyreactivity (PSR sort gate)” value does the source give for “QVQLVETVGGLDQAGGSLLLSCAASGRIFWENALGWYRQAPGKERELVAAISDSVVITYYADSVKGRFTISRDNAKNTVYLQMNSLKPEDTAVYDCAADKRGSVYLSSFWMDYWGQGTQVTVSS” here?
The value was “low polyreactivity”.

Which “polyreactivity (PSR sort gate)” value does the source give for “QVQLVEYGGGLVQAGGSLRLSCAASGRIFGYYTMGWYRQAPRKERELVAAITSSGGRTYYADSVKGRFTISRDNAKNTVYLQMNSLKPEDTAVYYCNKVTFGYAYWRYDGYDYWGQGTQVTVSS” here?
The value was “low polyreactivity”.

With “QVQLVKSGGGLVQAGGSLRLSCAASGRIFVGYVMGWYIQAPGKARELVAAIDSGRRTNYADSVKGRFTISRDNAKNTVYLQINSLKPEDTAVYYCNREAAHGSLRWTEMEYWGQGTQVTVSS” as the sequence, how does the “polyreactivity (PSR sort gate)” value read?
The value was “low polyreactivity”.

For “QVQLVQSGGGIVQEGGSLRLSCAASGSTFYRNTMGWYRQAPGKERELVAAISRTGASTHYADSVKGRFTISRDNAKNTVYFQMNSLKPEDTAVYYCNAVPAIGKYYGGGYWGQGTQVTVSS”, which “polyreactivity (PSR sort gate)” value is on record?
The value was “high polyreactivity”.

With “QVQLVQSGGGLVQAGGRLRLSCAASGRIFGFYAMGWYRQAPGKERELVAAITSTGRTYYADSVKGRFTISRDNAKNTVYLQMNSLKPEDTAVYYCAAGYGRADSGWVRMNYWGQGTQVTVSS” as the sequence, how does the “polyreactivity (PSR sort gate)” value read?
Its value is “high polyreactivity”.

With “QVQLVQSGGGLVQAGGSLRLSCAASGITFIHNAMGWYRQAPGKERELVAAITTSDGSTYYADSVKGRFTISRDNAKYTVYFQMNSLTPEDTAVYYCAARGRHSGYYSFPYYYWGQGTQVTVSS” as the sequence, how does the “polyreactivity (PSR sort gate)” value read?
Its value is “low polyreactivity”.

With “QVQLVQSGGGLVQAGGSLRLSCAASGRTIWANAMGWYRQAPGKESELVAAITTSGGSTNYADSVKGRFTISRDNAKNTVYLQMNSLKPEDTAVYYCNADPTYHVVNGVGYWGQGTQVTVSS” as the sequence, how does the “polyreactivity (PSR sort gate)” value read?
Its value is “low polyreactivity”.

Which “polyreactivity (PSR sort gate)” value does the source give for “QVQLVQSGGGLVQAGGSLRLSCAASGRTIYSKAMGWYRQAPGKERELVAAITSTDDSTYYADSVKGRFTISRDNAKNTVYLQMNSLKPEDTAVYYCNTDGLIAIRGLWWVEYDYWGQGTQVTVSS” here?
Its value is “low polyreactivity”.

With “QVQLVQSGGGLVQAGGSLRLSCAASGRTLWSYVMGWYRQAPGKERELVAAITSGGTTYYADSVKGRFTISRDNAKNTVYLQMNSLKPEDTAVYYCNVYTKFVYAYDYWGQGTQVTVSS” as the sequence, how does the “polyreactivity (PSR sort gate)” value read?
Its value is “high polyreactivity”.

For “QVQLVQSGGGLVQAGGSLRLSCAASGSIFAVYGMGWNRQAPGKERELVASISTGVSTNYADSVKGRFTISRDNAKNTVYLQRHSLKPEDTAVYYCAKTIYKSRVSYGSWGQGTQVTVSS”, which “polyreactivity (PSR sort gate)” value is on record?
The value was “low polyreactivity”.

With “QVQLVQSGGGLVQAGGSLRLSCAPSGSISTPYTMGWYRQAPGKERELVAAISWIGDTTSYADSVKGRYTISRDNAKNTVYLQMKSLKPEDTAVYYCDADYLWYNYAGQVDQDYDYWGQGTQVTVSS” as the sequence, how does the “polyreactivity (PSR sort gate)” value read?
Its value is “low polyreactivity”.

For “QVQLVQSGGGLVQAGGSLRLSSAASGRIFATNAMGWYRQAPGKERELVAAITTSGGSTYYADSVKGRFTISRDNAKNTVYLHLNSLKPEDTAVYYCAARRGPNSYRWRMGYWGHGTQVTVSS”, which “polyreactivity (PSR sort gate)” value is on record?
Its value is “high polyreactivity”.

Which “polyreactivity (PSR sort gate)” value does the source give for “QVQLVQSGGGLVQAGGSLSLSCAASVFIFYYYDMGWYIQAPGKERELVAAISGRDGSTYYADSVKGRFTISRDNAKNTVYLQMNSLKPEDTAVYYCAAANRSRSIGSQYGYWGQGTQVTVSS” here?
The value was “high polyreactivity”.

Which “polyreactivity (PSR sort gate)” value does the source give for “QVQLVQSGRGLVHAGCSLRLSCAASGRIYAGNAMGLYRQPPGKERELFATITSGGSTYYADSVKGRFTISRDNAKNTVYLQMNSLKPEDTAVYYCNAVNYWVKSRFSLTWEFAVVYWGQGTQVTVSS” here?
Its value is “low polyreactivity”.

Which “polyreactivity (PSR sort gate)” value does the source give for “QVQLVQSRGGLVQAGGSLRISCAASGRIFNPNAMRWDRQAPVKQRELVAAITRGGSTNYADSVKGRLTISRDNAKNTVYLQMISLQPEVSAVLYCAADFKTWYCDFDYCGQGTQVTVSS” here?
Its value is “high polyreactivity”.

Which “polyreactivity (PSR sort gate)” value does the source give for “QVQLVQSRGVLVQAGGSLRLSCAASGSIFKYNAMGWYRQAPGKERELVAAITYSGGSTYYADSVKGRFTISRDNAKNTVYLQMNSLKPEDTAVYYCNAYRRFSAFDYWGQGTQVTVSS” here?
The value was “high polyreactivity”.

For “QVQLVSGGGLVQAGGSLRLSCAASGRIFVSYAMGWYRQAPGKERELVADISSDGSTNYADSVKGRFTISRDNAKNTVYLQMNSLKPEDTAVYYCAVEVVRVYRYDYWGQGTQVTVSS”, which “polyreactivity (PSR sort gate)” value is on record?
The value was “low polyreactivity”.

For “QVQLVSSGGGLVQAGGSLSLSCAASGRTFCINAMGWYRQAPGKERELVAAIRTGGSTYYADSVKGRFTISRDNAKNTVYLQMNSLKPEDTAVYYCAAVLYHNRKTEYTYGYWGQGTQVTVSS”, which “polyreactivity (PSR sort gate)” value is on record?
The value was “high polyreactivity”.

Which “polyreactivity (PSR sort gate)” value does the source give for “QVQLVVSGGGLVQAAGSLRLSCAASGLTFANYVMGWYRQAPGKERELVASISISGGSTYYADSEKGRFTISRDNAKNTVYLQMNSLKPEDTAVYYCAASFVSSYQYAYWGQVTQVTVSS” here?
The value was “high polyreactivity”.

For “QVQLVVSGGGLVQAGGSLRLSCAASGSTFYAYAMGWYRQAPGKERELVARIRWRGGRTYYADSVKGRFTISRDNAKNTVYLRMNSLKPEDTAVYYCNRGYYSYYGRYYYWGQGTQVTLSS”, which “polyreactivity (PSR sort gate)” value is on record?
Its value is “high polyreactivity”.

With “QVQLVVSGGGLVQAGGSLRLSCAASGYTFQGYAMGWYRQAPGKERELVAGISRSGGRTYYADSVKGRFTISRDNAKNTVYLQMNSLKPEDTAVYYCASTYPGAIRDYWGQGTQVTVSS” as the sequence, how does the “polyreactivity (PSR sort gate)” value read?
Its value is “high polyreactivity”.

For “QVQLVVSGGGLVQAGGSLRLSWAASGSIFERYAMGLYRQAPGKERELVARISRSGTSTYYADSVKGRFTISRDNAKNSVYDQMNSLQPEDTAVYYCNATGSRYSGYQRCHYWRYDYLGQGTQVTVSS”, which “polyreactivity (PSR sort gate)” value is on record?
Its value is “high polyreactivity”.

Which “polyreactivity (PSR sort gate)” value does the source give for “QVQLVVSGGGLVQAGGTLRLSCAASGSILSDNGMGWYRQAPGKERELVASIRTGDITKYADCVKGRFTISRDNAKNTVDLQMTSLKPEDTAVYYCAAAGRVQYTRKYYGWRNRNDYWGQGTQVTVSS” here?
Its value is “low polyreactivity”.

Which “polyreactivity (PSR sort gate)” value does the source give for “QVQMQESGGGLVQAGGSLRLSCAASCTISQEDWMGWYRQAPGKEREFVAAIGLGSNTNYADSLKGRFTISRDNAKNTVYLQMNSLKPEDTAVYYCAVSVWQYSDHVFRGQGTQVTVSS” here?
The value was “low polyreactivity”.

For “QVQMQESGGGLVQAGGSLRLSCAASGSISRYYDMGWYRQAPGKEREFVAGISGGAITYYADSVKGRFTISRDNAKNSVYLQMNSLNREDTAVYYCAADTGVYQYHSYWGQGTQVTVSS”, which “polyreactivity (PSR sort gate)” value is on record?
The value was “low polyreactivity”.

For “QVQPQESGGGPVQACGSLRLSCAASGNILDADILGWYRLVPGIERELVASITDGGSTNYAESVKGRFTIRRDNAKNTVYLQMNSLIPEDTAVYYCAVWSLGRWRHYYWGQGTQVTVSS”, which “polyreactivity (PSR sort gate)” value is on record?
The value was “low polyreactivity”.
